Assay results published in patent publication US20160272683A1 (Novo Nordisk, published 2016).
Numbered stars: 1 amine (or outer) side, 2 acyl side, 3 side chain; on linkers, the order of the positions; unused ones are H or OH. Square brackets hold non-standard residues; d marks the D form. Side chains are listed from the residue outwards. * marks the point of attachment. C20 diacid = O=C(O)CCCCCCCCCCCCCCCCCCC(=O)*; γGlu = O=C(O)[C@H](CCC(=O)[*:2])N[*:1]

T1: human calcitonin receptor on BHK570/CRE-luc cells (human, UniProt P30988 25-474)
T1 sequence (looked up): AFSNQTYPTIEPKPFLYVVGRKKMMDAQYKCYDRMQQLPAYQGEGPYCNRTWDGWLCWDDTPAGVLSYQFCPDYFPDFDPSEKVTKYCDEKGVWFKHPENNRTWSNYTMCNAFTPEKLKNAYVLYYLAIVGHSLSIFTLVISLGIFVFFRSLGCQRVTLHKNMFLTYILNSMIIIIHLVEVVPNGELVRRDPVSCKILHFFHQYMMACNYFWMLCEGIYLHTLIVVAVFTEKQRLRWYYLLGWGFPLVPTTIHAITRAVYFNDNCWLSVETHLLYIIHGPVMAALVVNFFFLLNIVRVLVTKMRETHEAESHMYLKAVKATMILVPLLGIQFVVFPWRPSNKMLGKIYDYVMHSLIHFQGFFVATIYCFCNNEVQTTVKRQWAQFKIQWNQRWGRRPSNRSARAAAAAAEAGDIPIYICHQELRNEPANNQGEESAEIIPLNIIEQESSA

T2: human amylin 3(a) receptor (human calcitonin receptor co-expressed with RAMP-3) on BHK570/CRE-luc cells (human, UniProt P30988 25-474; O60896 24-148)
T2 sequence (looked up) 1: T1 sequence (looked up)
T2 sequence (looked up) 2: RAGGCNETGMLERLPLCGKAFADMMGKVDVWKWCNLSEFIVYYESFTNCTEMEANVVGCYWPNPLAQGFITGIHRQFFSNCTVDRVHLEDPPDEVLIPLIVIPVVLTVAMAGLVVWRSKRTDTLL

B1: [N-terminal(C20 diacid-gGlu), des1, 30S, 31G, 33L]mimylin (peptide)
peptide: {C20 diacid-γGlu}-ASELSTAALGRLSAELHELATLPRTETGSGSL-NH2
SMILES: CC(C)C[C@H](NC(=O)[C@H](CO)NC(=O)CNC(=O)[C@H](CO)NC(=O)CNC(=O)[C@@H](NC(=O)[C@H](CCC(=O)O)NC(=O)[C@@H](NC(=O)[C@H](CCCNC(=N)N)NC(=O)[C@@H]1CCCN1C(=O)[C@H](CC(C)C)NC(=O)[C@@H](NC(=O)[C@H](C)NC(=O)[C@H](CC(C)C)NC(=O)[C@H](CCC(=O)O)NC(=O)[C@H](Cc1c[nH]cn1)NC(=O)[C@H](CC(C)C)NC(=O)[C@H](CCC(=O)O)NC(=O)[C@H](C)NC(=O)[C@H](CO)NC(=O)[C@H](CC(C)C)NC(=O)[C@H](CCCNC(=N)N)NC(=O)CNC(=O)[C@H](CC(C)C)NC(=O)[C@H](C)NC(=O)[C@H](C)NC(=O)[C@@H](NC(=O)[C@H](CO)NC(=O)[C@H](CC(C)C)NC(=O)[C@H](CCC(=O)O)NC(=O)[C@H](CO)NC(=O)[C@H](C)NC(=O)CC[C@H](NC(=O)CCCCCCCCCCCCCCCCCCC(=O)O)C(=O)O)[C@@H](C)O)[C@@H](C)O)[C@@H](C)O)[C@@H](C)O)C(N)=O
B2: [N-terminal(C20 diacid-gGlu), des1, 30S, 31G, 33A]mimylin (peptide)
peptide: {C20 diacid-γGlu}-ASELSTAALGRLSAELHELATLPRTETGSGSA-NH2
SMILES: CC(C)C[C@H](NC(=O)[C@H](C)NC(=O)[C@H](C)NC(=O)[C@@H](NC(=O)[C@H](CO)NC(=O)[C@H](CC(C)C)NC(=O)[C@H](CCC(=O)O)NC(=O)[C@H](CO)NC(=O)[C@H](C)NC(=O)CC[C@H](NC(=O)CCCCCCCCCCCCCCCCCCC(=O)O)C(=O)O)[C@@H](C)O)C(=O)NCC(=O)N[C@@H](CCCNC(=N)N)C(=O)N[C@@H](CC(C)C)C(=O)N[C@@H](CO)C(=O)N[C@@H](C)C(=O)N[C@@H](CCC(=O)O)C(=O)N[C@@H](CC(C)C)C(=O)N[C@@H](Cc1c[nH]cn1)C(=O)N[C@@H](CCC(=O)O)C(=O)N[C@@H](CC(C)C)C(=O)N[C@@H](C)C(=O)N[C@H](C(=O)N[C@@H](CC(C)C)C(=O)N1CCC[C@H]1C(=O)N[C@@H](CCCNC(=N)N)C(=O)N[C@H](C(=O)N[C@@H](CCC(=O)O)C(=O)N[C@H](C(=O)NCC(=O)N[C@@H](CO)C(=O)NCC(=O)N[C@@H](CO)C(=O)N[C@@H](C)C(N)=O)[C@@H](C)O)[C@@H](C)O)[C@@H](C)O
B3: [N-terminal(C20 diacid-gGlu), des1, 15e, 30S, 31G]mimylin (peptide)
peptide: {C20 diacid-γGlu}-ASELSTAALGRLS[dE]ELHELATLPRTETGSGSP-NH2
SMILES: CC(C)C[C@H](NC(=O)[C@H](C)NC(=O)[C@H](C)NC(=O)[C@@H](NC(=O)[C@H](CO)NC(=O)[C@H](CC(C)C)NC(=O)[C@H](CCC(=O)O)NC(=O)[C@H](CO)NC(=O)[C@H](C)NC(=O)CC[C@H](NC(=O)CCCCCCCCCCCCCCCCCCC(=O)O)C(=O)O)[C@@H](C)O)C(=O)NCC(=O)N[C@@H](CCCNC(=N)N)C(=O)N[C@@H](CC(C)C)C(=O)N[C@@H](CO)C(=O)N[C@H](CCC(=O)O)C(=O)N[C@@H](CCC(=O)O)C(=O)N[C@@H](CC(C)C)C(=O)N[C@@H](Cc1c[nH]cn1)C(=O)N[C@@H](CCC(=O)O)C(=O)N[C@@H](CC(C)C)C(=O)N[C@@H](C)C(=O)N[C@H](C(=O)N[C@@H](CC(C)C)C(=O)N1CCC[C@H]1C(=O)N[C@@H](CCCNC(=N)N)C(=O)N[C@H](C(=O)N[C@@H](CCC(=O)O)C(=O)N[C@H](C(=O)NCC(=O)N[C@@H](CO)C(=O)NCC(=O)N[C@@H](CO)C(=O)N1CCC[C@H]1C(N)=O)[C@@H](C)O)[C@@H](C)O)[C@@H](C)O
B4: [N-terminal(C20 diacid-gGlu), des1, 30S, 31G, 33F]mimylin (peptide)
peptide: {C20 diacid-γGlu}-ASELSTAALGRLSAELHELATLPRTETGSGSF-NH2
SMILES: CC(C)C[C@H](NC(=O)[C@H](C)NC(=O)[C@H](C)NC(=O)[C@@H](NC(=O)[C@H](CO)NC(=O)[C@H](CC(C)C)NC(=O)[C@H](CCC(=O)O)NC(=O)[C@H](CO)NC(=O)[C@H](C)NC(=O)CC[C@H](NC(=O)CCCCCCCCCCCCCCCCCCC(=O)O)C(=O)O)[C@@H](C)O)C(=O)NCC(=O)N[C@@H](CCCNC(=N)N)C(=O)N[C@@H](CC(C)C)C(=O)N[C@@H](CO)C(=O)N[C@@H](C)C(=O)N[C@@H](CCC(=O)O)C(=O)N[C@@H](CC(C)C)C(=O)N[C@@H](Cc1c[nH]cn1)C(=O)N[C@@H](CCC(=O)O)C(=O)N[C@@H](CC(C)C)C(=O)N[C@@H](C)C(=O)N[C@H](C(=O)N[C@@H](CC(C)C)C(=O)N1CCC[C@H]1C(=O)N[C@@H](CCCNC(=N)N)C(=O)N[C@H](C(=O)N[C@@H](CCC(=O)O)C(=O)N[C@H](C(=O)NCC(=O)N[C@@H](CO)C(=O)NCC(=O)N[C@@H](CO)C(=O)N[C@@H](Cc1ccccc1)C(N)=O)[C@@H](C)O)[C@@H](C)O)[C@@H](C)O
B5: [N-terminal(C20 diacid-gGlu), des1, 15E, 30S, 31G]mimylin (peptide)
peptide: {C20 diacid-γGlu}-ASELSTAALGRLSEELHELATLPRTETGSGSP-NH2
SMILES: CC(C)C[C@H](NC(=O)[C@H](C)NC(=O)[C@H](C)NC(=O)[C@@H](NC(=O)[C@H](CO)NC(=O)[C@H](CC(C)C)NC(=O)[C@H](CCC(=O)O)NC(=O)[C@H](CO)NC(=O)[C@H](C)NC(=O)CC[C@H](NC(=O)CCCCCCCCCCCCCCCCCCC(=O)O)C(=O)O)[C@@H](C)O)C(=O)NCC(=O)N[C@@H](CCCNC(=N)N)C(=O)N[C@@H](CC(C)C)C(=O)N[C@@H](CO)C(=O)N[C@@H](CCC(=O)O)C(=O)N[C@@H](CCC(=O)O)C(=O)N[C@@H](CC(C)C)C(=O)N[C@@H](Cc1c[nH]cn1)C(=O)N[C@@H](CCC(=O)O)C(=O)N[C@@H](CC(C)C)C(=O)N[C@@H](C)C(=O)N[C@H](C(=O)N[C@@H](CC(C)C)C(=O)N1CCC[C@H]1C(=O)N[C@@H](CCCNC(=N)N)C(=O)N[C@H](C(=O)N[C@@H](CCC(=O)O)C(=O)N[C@H](C(=O)NCC(=O)N[C@@H](CO)C(=O)NCC(=O)N[C@@H](CO)C(=O)N1CCC[C@H]1C(N)=O)[C@@H](C)O)[C@@H](C)O)[C@@H](C)O
B6: [N-terminal(C20 diacid-gGlu), des1, 30S, 31G, 33G]mimylin (peptide)
peptide: {C20 diacid-γGlu}-ASELSTAALGRLSAELHELATLPRTETGSGSG-NH2
SMILES: CC(C)C[C@H](NC(=O)[C@H](C)NC(=O)[C@H](C)NC(=O)[C@@H](NC(=O)[C@H](CO)NC(=O)[C@H](CC(C)C)NC(=O)[C@H](CCC(=O)O)NC(=O)[C@H](CO)NC(=O)[C@H](C)NC(=O)CC[C@H](NC(=O)CCCCCCCCCCCCCCCCCCC(=O)O)C(=O)O)[C@@H](C)O)C(=O)NCC(=O)N[C@@H](CCCNC(=N)N)C(=O)N[C@@H](CC(C)C)C(=O)N[C@@H](CO)C(=O)N[C@@H](C)C(=O)N[C@@H](CCC(=O)O)C(=O)N[C@@H](CC(C)C)C(=O)N[C@@H](Cc1c[nH]cn1)C(=O)N[C@@H](CCC(=O)O)C(=O)N[C@@H](CC(C)C)C(=O)N[C@@H](C)C(=O)N[C@H](C(=O)N[C@@H](CC(C)C)C(=O)N1CCC[C@H]1C(=O)N[C@@H](CCCNC(=N)N)C(=O)N[C@H](C(=O)N[C@@H](CCC(=O)O)C(=O)N[C@H](C(=O)NCC(=O)N[C@@H](CO)C(=O)NCC(=O)N[C@@H](CO)C(=O)NCC(N)=O)[C@@H](C)O)[C@@H](C)O)[C@@H](C)O
B7: [N-terminal(C20 diacid-gGlu), des1, 30S, 31G, 33S]mimylin (peptide)
peptide: {C20 diacid-γGlu}-ASELSTAALGRLSAELHELATLPRTETGSGSS-NH2
SMILES: CC(C)C[C@H](NC(=O)[C@H](C)NC(=O)[C@H](C)NC(=O)[C@@H](NC(=O)[C@H](CO)NC(=O)[C@H](CC(C)C)NC(=O)[C@H](CCC(=O)O)NC(=O)[C@H](CO)NC(=O)[C@H](C)NC(=O)CC[C@H](NC(=O)CCCCCCCCCCCCCCCCCCC(=O)O)C(=O)O)[C@@H](C)O)C(=O)NCC(=O)N[C@@H](CCCNC(=N)N)C(=O)N[C@@H](CC(C)C)C(=O)N[C@@H](CO)C(=O)N[C@@H](C)C(=O)N[C@@H](CCC(=O)O)C(=O)N[C@@H](CC(C)C)C(=O)N[C@@H](Cc1c[nH]cn1)C(=O)N[C@@H](CCC(=O)O)C(=O)N[C@@H](CC(C)C)C(=O)N[C@@H](C)C(=O)N[C@H](C(=O)N[C@@H](CC(C)C)C(=O)N1CCC[C@H]1C(=O)N[C@@H](CCCNC(=N)N)C(=O)N[C@H](C(=O)N[C@@H](CCC(=O)O)C(=O)N[C@H](C(=O)NCC(=O)N[C@@H](CO)C(=O)NCC(=O)N[C@@H](CO)C(=O)N[C@@H](CO)C(N)=O)[C@@H](C)O)[C@@H](C)O)[C@@H](C)O

molecular target: T1, human calcitonin receptor on …; test: cell-based or functional assay

Row | hCTR funct. EC50 (pM), tested with HSA [pM] | Binder
1 | 37 | Ac-ASK([γGlu-C20 diacid])LSTAALGRLSAELHELATLPRTETGSGSP-NH2 [[N-terminal(acetyl), des1, 4K(C20 diacid-gGlu), 30S, 31G]mimylin]
2 | 78 | B1
3 | 102 | B2
4 | 23 | B3
5 | 22 | Ac-ASELSTAALGRLSAELHK([γGlu-C20 diacid])LATLPRTETGSGSP-NH2 [[N-terminal(acetyl), des1, 19K(C20 diacid-gGlu), 30S, 31G]mimylin]
6 | 73 | B4
7 | 40 | B5
8 | 44 | Ac-ASELSTAALGRLSAK([γGlu-C20 diacid])LHELATLPRTETGSGSP-NH2 [[N-terminal(acetyl), des1, 16K(C20 diacid-gGlu), 30S, 31G]mimylin]
9 | 239 | B6
10 | 154 | B7

molecular target: T2, human amylin 3(a) receptor (human …); test: cell-based or functional assay

Row | hAmylin-R funct. EC50 (pM), tested with HSA [pM] | Binder
11 | 72 | Ac-ASK([γGlu-C20 diacid])LSTAALGRLSAELHELATLPRTETGSGSP-NH2 [[N-terminal(acetyl), des1, 4K(C20 diacid-gGlu), 30S, 31G]mimylin]
12 | 168 | B1
13 | 265 | B2
14 | 94 | B3
15 | 47 | Ac-ASELSTAALGRLSAELHK([γGlu-C20 diacid])LATLPRTETGSGSP-NH2 [[N-terminal(acetyl), des1, 19K(C20 diacid-gGlu), 30S, 31G]mimylin]
16 | 94 | B4
17 | 85 | B5
18 | 100 | Ac-ASELSTAALGRLSAK([γGlu-C20 diacid])LHELATLPRTETGSGSP-NH2 [[N-terminal(acetyl), des1, 16K(C20 diacid-gGlu), 30S, 31G]mimylin]
19 | 435 | B6
20 | 328 | B7
